Reference: patent publication US20240417463A1 (ADAGENE PTE, published 2024)
Where a chain is given by its changes, count along the chain named.

B1: TY25029 (antibody, V domains shown)
VH: EVQLVESGGGLVQPGGSLRLSCAASGYTFSNYWIHWVRQAPGKGLEWIGIIYPSSGSTKYAQKFQGRVTISRDNSKNTLYLQLNSLRAEDTAVYYCARDRAPGSSGYYDGFDYWGQGTLVTVSS
VL: DIQLTQSPSSLSASVGDRVTITCRASQSVDFHGISFLHWYQQKPGKAPKLLIYDASSLESGVPSRFSGSGSGTDFTLTISSLQPEDFATYYCHQRSTTPLTFGQGTKVEIKR
B2: TY25039 (antibody, V domains shown)
VH: QVQPAQSGAEVKKPGSSVKVSCKASGYSISSGYYWGWIRQAPGQGLEWIGAISYSGSTYYSPSLKSRVTITADKSTSTAYMELSSLRSEDTAVYYCARHYLFAGSTSYDAFDIWGQGTLVTVSS
VL: DIQLTQSPSSLSASVGDRVTITCRASQSVDFYGFSFLAWYQQKPGKAPKLLIYDASNRATGIPSRFSGSGSGTDFTLTISSLQPEDFATYYCQQSYRTPLTFGQGTKVEIKR
B3: TY25034 (antibody, V domains shown)
VH: EVQLVESGGGLVQPGGSLRLSCAASGYSITSGHYWNWIRQAPGKGLEWIGIISPSGGGTKYAQKFQGRVTISRDNSKNTLYLQLNSLRAEDTAVYYCARGARGYYALDYWGQGTLVTVSS
VL: EIVLTQSPATLSLSPGERATLSCRASQSVRGRLLAWYQQKPGQAPRLLIYAASSLQSGVPARFSGSGSGTDFTLTISSLEPEDFAVYYCAQYLELPYTFGQGTKVEIKR
B4: TY25040 (antibody, V domains shown)
VH: QVQLVQSGAEVKKPGSSVKVSCKASGFTFSDYGIHWVRQAPGQGLEWIGRIYPSGGSTNYAQKFQGRVTITADKSTSTAYMELSSLRSEDTAVYYCARQRGYGRFAYWGQGTLVTVSS
VL: DIQLTQSPSSLSASVGDRVTITCSASSSVGYVYWYQQKPGKAPKLLIYDASSLESGVPSRFSGSGSGTDFTLTISSLQPEDFATYFCQQYTYAPFTFGQGTKVEIKR
B5: TY25041 (antibody, V domains shown)
VH: QVQLVQSGAEVKKPGSSVKVSCKASGYSISSGHHWNWIRQAPGQGLEWIGAISYSGSTYYSPSLKSRVTITADKSTSTAYMELSSLRSEDTAVYYCARQGYYGGEGYAVDYWGQGTLVTVSS
VL: B2 VL with F34I, A38H, Q93V, S95A, Y96T, R97Q, L100F
B6: TY21447 (antibody, V domains shown)
VH: EVQLVESGGGLVQPGGSLRLSCAASGFTFSNYAIHWVRQAPGKGLEWVSAISGSGSSTYYADSVKGRFTISRDNSKNTLYLQLNSLRAEDTAVYYCARRGSYGFGAFDYWGQGTLVTVSS
VL: DIQLTQSPSSLSASVGDRVTITCRASQTIGRYLNWYQQKPGKAPKLLIYDASNRATGIPSRFSGSGSGTDFTLTISSLQPEDFATYYCQQRYPWPYTFGQGTKVEIKR
B7: TY25031 (antibody, V domains shown)
VH: EVQLVESGGGLVQPGGSLRLSCAASGYSITSGYHWGWIRQAPGKGLEWIGRIYPSSGSTKYAQKFQGRVTISRDNSKNTLYLQLNSLRAEDTAVYYCARGVRGSYGWFDVWGQGTLVTVSS
VL: DIQLTQSPSSLSASVGDRVTITCSASSRVSYVYWYQQKPGKAPKLLIYAASTLQSGVPSRFSGSGSGTDFTLTISSLQPEDFATYYCQHYVSSPRVYTFGQGTKVEIKR
B8: TY25030 (antibody, V domains shown)
VH: EVQLVESGGGLVQPGGSLRLSCAASGYSITSGYYWSWIRQAPGKGLEWIGEIYHSGNTYYNPSLKSRVTISRDNSKNTLYLQLNSLRAEDTAVYYCARRVPLGAFDYWGQGTLVTVSS
VL: DIQLTQSPSSLSASVGDRVTITCRASQTVISRYLAWYQQKPGKAPKLLIYDASNLETGVPSRFSGSGSGTDFTLTISSLQPEDFATYYCQQYYAWPLTFGQGTKVEIKR
B9: TY25033 (antibody, V domains shown)
VH: QVQLVQSGAEVKKPGSSVKVSCKASGFTFTSYAIHWVRQAPGQGLEWIGIINPNFGSTNYAQKFQGRVTITADKSTSTAYMELSSLRSEDTAVYYCARYYYGASFDVWGQGTLVTVSS
VL: DIQLTQSPSSLSASVGDRVTITCKSGQSLLHGDVKTYLYWYQQKPGKAPKLLIYDASNRATGIPSRFSGSGSGTDFTLTISSLQPEDFATYYCQQYASWPPGFTFGQGTKVEIKR
B10: TY25035 (antibody, V domains shown)
VH: EVQLVESGGGLVQPGGSLRLSCAASGYSISSGYHWDWIRQAPGKGLEWLARIYWDGDKRYSPSLKSRLTISRDNSKNTLYLQLNSLRAEDTAVYYCARFSDGFDPWGQGTLVTVSS
VL: EIVLTQSPATLSLSPGERATLSCRASQSVDFVGISFLHWYQQKPGQAPRLLIYDASNRATGIPARFSGSGSGTDFTLTISSLEPEDFAVYYCVQGLQWPHTFGQGTKVEIKR
B11: TY25036 (antibody, V domains shown)
VH: QVQLVQSGAEVKKPGSSVKVSCKASGYTFTGYAIHWVRQAPGQGLEWIGWISPSSGSTKYAQKFQGRVTITADKSTSTAYMELSSLRSEDTAVYYCARYGYGPVFDYWGQGTLVTVSS
VL: DIQLTQSPSSLSASVGDRVTITCSASSSVTYIYWYQQKPGKAPKLLIYDASNRATGIPSRFSGSGSGTDFTLTISSLQPEDFATYYCQQYTSSPRGFTFGQGTKVEIKR
B12: TY25037 (antibody, V domains shown)
VH: QVQLVQSGAEVKKPGSSVKVSCKASGYSITSGHYWTWIRQAPGQGLEWIGGIIPVFGTPNYAQKFQGRVTITADKSTSTAYMELSSLRSEDTAVYYCASYGYGGAYFDVWGQGTLVTVSS
VL: B2 VL with Y32H, F34I, A38H, Q93V, S95G, Y96I, R97Q, T98W, L100W
B13: TY25038 (antibody, V domains shown)
VH: QVQLVQSGAEVKKPGSSVKVSCKASGFTFSRYAIHWVRQAPGQGLEWLGGIIPVFGTANYAQKFQGRVTITADKSTSTAYMELSSLRSEDTAVYYCARQGILGGFAYWGQGTLVTVSS
VL: DIQLTQSPSSLSASVGDRVTITCRASESVDFHGKSFLAWYQQKPGKAPKLLIYAASSLQSGVPSRFSGSGSGTDFTLTISSLQPEDFATYYCQQYLELPFTFGQGTKVEIKR
B14: TY21449 (antibody, V domains shown)
VH: B6 VH with N31G
VL: B6 VL
B15: TY21451 (antibody, V domains shown)
VH: EVQLVESGGGLVQPGGSLRLSCAASGFTFSDYWIHWVRQAPGKGLEWVSGISGAGGSTYYADSVKGRFTISRDNSKNTLYLQLNSLRAEDTAVYYCARLGDYWGQGTLVTVSS
VL: DIQLTQSPSSLSASVGDRVTITCRASQGISSVLAWYQQKPGKAPKLLIYAASTLQSGVPSRFSGSGSGTDFTLTISSLQPEDFATYYCQQYYSIPFTFGQGTKVEIKR
B16: TY25032 (antibody, V domains shown)
VH: EVQLVESGGGLVQPGGSLRLSCAASGFTFTSYGIHWVRQAPGKGLEWVSAISGSGGSTYYADSVKGRFTISRDNSKNTLYLQLNSLRAEDTAVYYCARSGHAYDFDYWGQGTLVTVSS
VL: DIQLTQSPSSLSASVGDRVTITCRASQSVDFYGISFLDWYQQKPGKAPKLLIYAASTLQSGVPSRFSGSGSGTDFTLTISSLQPEDFATYYCQQGGTSPWTFAQGTKVEIKR

These molecules were tested against human CD47 on the cell surface (CEM, Raji and other human tumor cells, human RBCs) (human) (UniProt Q08722) (assay: not given).

| Molecule | % of events double-positive for CFSE-Raji and BMQC-Jurkat (cell clustering), antibody at 100 nM [%] |
| --- | --- |
| Neg ctrl (antibody) | 10.3 |

What follows are molecules tested against T1, hCD47-ECD/Fc protein (Sinobiological) (human, UniProt Q08722 19-139, biotinylated in the Octet assay, sites not stated) (assay: ELISA, coated hCD47-ECD/Fc).
T1 construct: extracellular domain; Bought protein; also called human CD47-Fc antigen; recombinant hCD47-ECD/Fc; not shown: Fc part of the bought fusion protein

| Molecule | EC50 [nM] |
| --- | --- |
| B1 | 0.58 |
| B2 | 3.66 |
| B3 | 0.47 |
| B4 | 0.46 |
| B5 | 1.17 |
| B6 | 0.33 |
| B7 | 0.59 |
| B8 | 2.42 |
| B9 | 6.11 |
| B10 | 2.55 |
| B11 | 1.71 |
| B12 | 0.95 |
| B13 | 0.78 |

Each molecule was assayed against T1, hCD47-ECD/Fc protein (Sinobiological) (assay: ELISA, coated hCD47-ECD/Fc, second independent measurement).
Experimental: After blocking, the plates were washed three times and incubated with test antibodies with serial dilution at 37° C. for 1 hour. Then the plates were washed three times and incubated with HRP-conjugated anti-human Fab secondary antibody (Sigma) at 37° C. for 1 hour. After washing three times, the plates were incubated with TMB substrate for 15 minutes at room temperature. The reaction was stopped by the addition of H2SO4 stop solution. Absorbance at 450 nm was measured by a microplate reader. The data were analyzed by GraphPad Prism 7.0.

| Molecule | EC50 [nM] |
| --- | --- |
| B3 | 0.41 |
| B4 | 0.39 |
| B7 | 0.6 |

Each molecule was assayed against T1, hCD47-ECD/Fc protein (Sinobiological) (assay: BLI (Octet RED96), biotin-hCD47-ECD/Fc on SA sensors, 1:1 model;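 also: test antibodies as analytes, 300 s association then 300 s dissociation in running buffer, with benchmark reference antibodies run as controls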).
Experimental: (§1) The binding affinity between antibodies and human CD47 was measured through Octet® RED96 System (ForteBio). […] After washing, the sensors were dipped into solutions containing test antibodies for 300 seconds to monitor the association phase, and then were dipped into running buffer for 300 seconds to monitor the dissociation phase. The acquired ForteBio data were processed with Data Acquisition software 7.1, and kinetic data were fitted to a 1:1 Langmuir binding model.

| Molecule | Kd [nM] | koff [s⁻¹] | kon [M⁻¹ s⁻¹] |
| --- | --- | --- | --- |
| B1 | 1.51 | 0.000631 | 417000 |
| B2 | 0.141 | 1.37e-05 | 97300 |
| B3 | 0.826 | 0.000671 | 813000 |
| B4 | 0.474 | 0.0002 | 422000 |
| B7 | 0.483 | 8.1e-05 | 168000 |
| B8 | 4.62 | 0.00166 | 361000 |
| B9 | < 0.001 | < 1e-07 | 58900 |
| B10 | < 0.001 | < 1e-07 | 171000 |
| B11 | < 0.001 | < 1e-07 | 93700 |
| B12 | 0.611 | 3.42e-05 | 56000 |
| B13 | 4.47 | 0.00111 | 249000 |

Each molecule was assayed against T1, hCD47-ECD/Fc protein (Sinobiological) (assay: competition ELISA vs biotin-hSIRPα-ECD/His on coated hCD47-ECD/Fc, experiment 1).
Experimental: (§2) The plates were washed three times again and incubated with HRP-conjugated streptavidin at 37° C. for 1 hour. After washing, the plates were incubated with TMB substrate for 15 minutes at room temperature. The reaction was stopped by the addition of H2SO4 stop solution. Absorbance at 450 nm was measured by a microplate reader. The data was analyzed by GraphPad Prism 7.0.

| Molecule | IC50 [nM] |
| --- | --- |
| B1 | > 100 |
| B2 | > 100 |
| B3 | 3.53 |
| B4 | 3.3 |
| B5 | > 100 |
| B7 | 4.55 |
| B8 | 21.7 |
| B9 | > 100 |
| B10 | 60.6 |
| B11 | > 100 |
| B12 | > 100 |
| B13 | > 100 |

Each molecule was assayed against T1, hCD47-ECD/Fc protein (Sinobiological) (assay: competition ELISA vs biotin-hSIRPα-ECD/His on coated hCD47-ECD/Fc, experiment 2).
Experimental: as §2

| Molecule | IC50 [nM] |
| --- | --- |
| B6 | 3.12 |
| B14 | 3.18 |
| B15 | > 100 |

What follows are molecules tested against T1, hCD47-ECD/Fc protein (Sinobiological) (assay: BLI (Octet RED96), biotin-hCD47-ECD/Fc on SA sensors, 1:1 model, second independent measurement).
Experimental: as §1

| Molecule | Kd [nM] | koff [s⁻¹] | kon [M⁻¹ s⁻¹] |
| --- | --- | --- | --- |
| B3 | 0.87 | 0.000704 | 809000 |

These molecules were tested against T1, hCD47-ECD/Fc protein (Sinobiological) (assay: BLI (Octet RED96), biotin-hCD47-ECD/Fc on SA sensors, 1:1 model; ForteBio BLI affinity ranking, not ELISA).
Experimental: as §1

| Molecule | Kd [nM] | koff [s⁻¹] | kon [M⁻¹ s⁻¹] |
| --- | --- | --- | --- |
| B16 | 2.73 | 0.000806 | 295000 |
